Biological target: dynein/ dynactin/ BicD2-S complex (human | human (endogenous in HEK293-T)) (UniProt Q14204)
Test: single-molecule TIRF colocalisation on microtubules

Chain of dynein/ dynactin/ BicD2-S complex (human | human (endogenous in HEK293-T)) (Q14204 whole entry, looked up, one chain of several): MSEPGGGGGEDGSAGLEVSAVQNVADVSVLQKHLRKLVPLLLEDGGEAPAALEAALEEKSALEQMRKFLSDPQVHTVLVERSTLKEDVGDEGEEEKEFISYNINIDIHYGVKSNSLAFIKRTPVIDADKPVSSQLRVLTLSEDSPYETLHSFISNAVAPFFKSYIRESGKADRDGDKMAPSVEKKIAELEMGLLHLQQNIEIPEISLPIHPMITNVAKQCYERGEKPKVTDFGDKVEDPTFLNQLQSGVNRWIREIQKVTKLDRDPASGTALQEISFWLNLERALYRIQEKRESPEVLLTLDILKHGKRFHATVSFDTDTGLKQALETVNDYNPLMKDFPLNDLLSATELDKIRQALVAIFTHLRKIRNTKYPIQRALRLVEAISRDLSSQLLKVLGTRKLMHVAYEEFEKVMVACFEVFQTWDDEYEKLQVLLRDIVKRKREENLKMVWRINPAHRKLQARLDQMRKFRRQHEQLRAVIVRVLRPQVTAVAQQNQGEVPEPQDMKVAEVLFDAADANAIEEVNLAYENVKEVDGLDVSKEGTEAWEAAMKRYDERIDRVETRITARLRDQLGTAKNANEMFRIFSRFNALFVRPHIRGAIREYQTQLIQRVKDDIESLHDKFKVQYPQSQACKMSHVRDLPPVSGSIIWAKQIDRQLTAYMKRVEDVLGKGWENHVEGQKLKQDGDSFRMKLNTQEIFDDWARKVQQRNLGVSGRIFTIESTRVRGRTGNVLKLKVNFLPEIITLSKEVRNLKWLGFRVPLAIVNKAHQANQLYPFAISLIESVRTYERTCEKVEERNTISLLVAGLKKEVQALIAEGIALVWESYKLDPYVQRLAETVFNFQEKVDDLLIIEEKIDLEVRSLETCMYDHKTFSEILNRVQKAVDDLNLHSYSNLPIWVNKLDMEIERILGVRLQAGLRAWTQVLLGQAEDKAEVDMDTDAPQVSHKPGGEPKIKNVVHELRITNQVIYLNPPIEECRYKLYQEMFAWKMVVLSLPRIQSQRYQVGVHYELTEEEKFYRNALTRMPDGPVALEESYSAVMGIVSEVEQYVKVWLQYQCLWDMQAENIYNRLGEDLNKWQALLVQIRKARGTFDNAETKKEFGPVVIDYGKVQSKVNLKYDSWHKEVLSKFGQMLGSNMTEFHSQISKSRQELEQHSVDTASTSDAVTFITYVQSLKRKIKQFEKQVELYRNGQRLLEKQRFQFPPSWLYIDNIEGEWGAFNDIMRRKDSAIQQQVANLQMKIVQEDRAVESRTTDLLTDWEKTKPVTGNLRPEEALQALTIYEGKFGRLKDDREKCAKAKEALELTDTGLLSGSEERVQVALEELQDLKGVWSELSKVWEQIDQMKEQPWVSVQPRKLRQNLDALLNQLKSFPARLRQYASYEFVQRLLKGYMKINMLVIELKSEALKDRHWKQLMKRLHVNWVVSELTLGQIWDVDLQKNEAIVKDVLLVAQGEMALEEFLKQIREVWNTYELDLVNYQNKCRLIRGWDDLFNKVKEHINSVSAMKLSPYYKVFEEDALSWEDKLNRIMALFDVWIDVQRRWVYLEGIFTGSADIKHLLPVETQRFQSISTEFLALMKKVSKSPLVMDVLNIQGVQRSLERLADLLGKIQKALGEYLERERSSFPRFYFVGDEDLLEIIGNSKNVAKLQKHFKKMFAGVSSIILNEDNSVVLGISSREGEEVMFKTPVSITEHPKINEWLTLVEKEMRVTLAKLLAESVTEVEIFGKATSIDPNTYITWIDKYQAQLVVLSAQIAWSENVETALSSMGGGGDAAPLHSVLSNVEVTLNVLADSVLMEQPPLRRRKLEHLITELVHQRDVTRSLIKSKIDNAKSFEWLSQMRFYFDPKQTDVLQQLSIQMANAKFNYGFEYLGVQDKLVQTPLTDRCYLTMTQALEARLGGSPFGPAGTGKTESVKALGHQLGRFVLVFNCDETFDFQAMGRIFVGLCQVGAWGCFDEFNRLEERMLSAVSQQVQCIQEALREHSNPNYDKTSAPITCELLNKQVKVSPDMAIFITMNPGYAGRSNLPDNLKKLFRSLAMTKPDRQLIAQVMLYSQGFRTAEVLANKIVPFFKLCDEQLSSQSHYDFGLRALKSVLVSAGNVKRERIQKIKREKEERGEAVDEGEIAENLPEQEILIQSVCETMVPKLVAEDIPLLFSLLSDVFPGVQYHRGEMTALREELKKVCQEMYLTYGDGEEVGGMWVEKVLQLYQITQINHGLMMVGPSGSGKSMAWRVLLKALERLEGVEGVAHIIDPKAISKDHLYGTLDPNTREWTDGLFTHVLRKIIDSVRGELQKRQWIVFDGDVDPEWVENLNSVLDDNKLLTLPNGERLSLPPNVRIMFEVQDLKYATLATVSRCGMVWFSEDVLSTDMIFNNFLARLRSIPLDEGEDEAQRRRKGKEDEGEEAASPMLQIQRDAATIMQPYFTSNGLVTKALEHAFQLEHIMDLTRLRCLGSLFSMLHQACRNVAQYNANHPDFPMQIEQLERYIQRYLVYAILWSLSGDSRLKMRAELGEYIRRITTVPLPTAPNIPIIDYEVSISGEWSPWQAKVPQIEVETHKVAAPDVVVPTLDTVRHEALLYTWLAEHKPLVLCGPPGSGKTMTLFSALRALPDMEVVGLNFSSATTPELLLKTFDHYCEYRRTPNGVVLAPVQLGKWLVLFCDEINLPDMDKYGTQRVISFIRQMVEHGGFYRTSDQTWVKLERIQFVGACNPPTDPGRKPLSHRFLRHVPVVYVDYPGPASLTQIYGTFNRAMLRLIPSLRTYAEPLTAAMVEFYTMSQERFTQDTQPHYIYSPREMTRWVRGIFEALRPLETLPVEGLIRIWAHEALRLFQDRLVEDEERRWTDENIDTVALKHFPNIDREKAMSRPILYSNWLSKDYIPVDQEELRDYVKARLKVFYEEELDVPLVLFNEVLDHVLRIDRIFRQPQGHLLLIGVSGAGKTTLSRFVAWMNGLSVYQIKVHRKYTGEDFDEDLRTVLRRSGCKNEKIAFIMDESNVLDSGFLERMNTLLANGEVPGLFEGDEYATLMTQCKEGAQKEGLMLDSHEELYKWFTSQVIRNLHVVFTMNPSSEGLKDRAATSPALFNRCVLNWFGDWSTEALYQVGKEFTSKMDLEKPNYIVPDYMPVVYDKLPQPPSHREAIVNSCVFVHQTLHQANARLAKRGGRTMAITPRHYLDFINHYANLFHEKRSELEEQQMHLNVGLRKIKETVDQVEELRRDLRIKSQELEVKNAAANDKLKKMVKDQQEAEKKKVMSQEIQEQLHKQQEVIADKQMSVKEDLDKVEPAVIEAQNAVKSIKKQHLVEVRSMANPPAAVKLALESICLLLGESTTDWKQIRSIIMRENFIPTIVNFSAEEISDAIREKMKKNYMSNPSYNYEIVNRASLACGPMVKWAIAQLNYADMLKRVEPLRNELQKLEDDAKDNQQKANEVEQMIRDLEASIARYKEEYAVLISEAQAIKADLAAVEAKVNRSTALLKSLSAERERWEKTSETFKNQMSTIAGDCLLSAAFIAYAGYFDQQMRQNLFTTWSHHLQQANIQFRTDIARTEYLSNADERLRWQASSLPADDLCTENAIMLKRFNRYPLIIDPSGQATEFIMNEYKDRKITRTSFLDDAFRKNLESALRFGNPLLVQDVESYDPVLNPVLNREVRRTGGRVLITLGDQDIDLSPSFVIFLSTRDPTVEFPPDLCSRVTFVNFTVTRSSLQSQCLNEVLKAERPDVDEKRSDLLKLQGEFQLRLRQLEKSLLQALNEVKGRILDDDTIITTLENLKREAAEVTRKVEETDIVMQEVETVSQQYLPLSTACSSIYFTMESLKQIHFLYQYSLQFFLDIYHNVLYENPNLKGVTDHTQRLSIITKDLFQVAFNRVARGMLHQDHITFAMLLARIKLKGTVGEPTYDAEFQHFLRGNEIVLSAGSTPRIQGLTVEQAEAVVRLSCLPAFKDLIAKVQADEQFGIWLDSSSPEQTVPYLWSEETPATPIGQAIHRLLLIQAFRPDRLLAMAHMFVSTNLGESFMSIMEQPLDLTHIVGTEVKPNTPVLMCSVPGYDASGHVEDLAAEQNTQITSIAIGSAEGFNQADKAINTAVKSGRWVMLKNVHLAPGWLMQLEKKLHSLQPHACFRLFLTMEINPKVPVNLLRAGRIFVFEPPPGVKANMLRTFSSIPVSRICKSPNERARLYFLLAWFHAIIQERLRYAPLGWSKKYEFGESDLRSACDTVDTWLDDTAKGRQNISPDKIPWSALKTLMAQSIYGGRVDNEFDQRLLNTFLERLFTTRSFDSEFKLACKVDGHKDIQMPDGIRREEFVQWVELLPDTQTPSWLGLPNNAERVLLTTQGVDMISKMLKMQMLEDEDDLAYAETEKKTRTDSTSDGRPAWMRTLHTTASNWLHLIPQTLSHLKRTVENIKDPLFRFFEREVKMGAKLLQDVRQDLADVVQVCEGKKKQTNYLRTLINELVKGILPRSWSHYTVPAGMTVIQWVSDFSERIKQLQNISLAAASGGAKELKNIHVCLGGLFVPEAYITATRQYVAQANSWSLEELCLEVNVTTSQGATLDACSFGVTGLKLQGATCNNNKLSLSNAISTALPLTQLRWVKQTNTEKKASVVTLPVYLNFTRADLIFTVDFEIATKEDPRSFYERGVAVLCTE

- percent of dynein runs that comigrated with Lis1: 16.8%
Substance: HaloTag-Lis1 (human full-length Lis1, PAFAH1B1) (from UniProt P43034 1-410) (natural protein)

— article doi:10.1101/683052
